Numbering of substitutions follows the chain as printed. In names and notes the source's numbering stands.
T1: orthogonal hCD122 receptor (hoRb), hCD122 with H133D and Y134F (human, UniProt P14784 27-550)
T1 sequence: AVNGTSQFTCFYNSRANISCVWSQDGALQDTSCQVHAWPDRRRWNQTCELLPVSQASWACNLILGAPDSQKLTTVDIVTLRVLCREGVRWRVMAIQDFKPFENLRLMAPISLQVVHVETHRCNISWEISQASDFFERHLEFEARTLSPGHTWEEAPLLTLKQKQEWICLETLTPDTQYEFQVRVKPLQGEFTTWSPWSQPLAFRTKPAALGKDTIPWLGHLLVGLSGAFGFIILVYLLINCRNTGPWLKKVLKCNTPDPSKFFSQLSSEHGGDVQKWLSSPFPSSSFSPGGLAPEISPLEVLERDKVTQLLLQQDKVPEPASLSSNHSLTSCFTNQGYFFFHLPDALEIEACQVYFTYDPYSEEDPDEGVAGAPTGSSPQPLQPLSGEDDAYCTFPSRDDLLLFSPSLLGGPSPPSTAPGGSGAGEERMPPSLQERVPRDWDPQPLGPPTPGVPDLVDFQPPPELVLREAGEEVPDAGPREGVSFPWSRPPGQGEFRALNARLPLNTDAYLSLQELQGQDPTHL

B1: SQVLEA (ligand)
chain: APTSSSTKKTQLQLSQLLVLLEAILNGINNYKNPKLTRMLTFKFYMPKKATELKHLQCLEEELKPLEEVLNLAQSKNFHLRPRDLISNINVIVLELKGSETTFMCEYADETATIVEFLNRWITFCQSIISTLT
B2: SQVLYA, E116G (ligand)
chain: B1 chain with E22Y
B3: SQVLFA (Ref# 073) (ligand)
chain: B1 chain with E22F
B4: SQVLFA (Ref# 079) (ligand)
chain: B1 chain with E22F
B5: SQVLVA (ligand)
chain: B1 chain with E22V
B6: SQVLWA (ligand)
chain: B1 chain with E22W
B7: SQVLIA (ligand)
chain: B1 chain with E22I
B8: SQVLHA (ligand)
chain: B1 chain with E22H
B9: SQVLSA (ligand)
chain: B1 chain with E22S
B10: SQVLLA (ligand)
chain: B1 chain with E22L
B11: SQVLAA (ligand)
chain: B1 chain with E22A
B12: SQVLMA (ligand)
chain: B1 chain with E22M
B13: SQVLGA (ligand)
chain: B1 chain with E22G
B14: ΔA1, SQVLKA (ligand)
chain: PTSSSTKKTQLQLSQLLVLLKAILNGINNYKNPKLTRMLTFKFYMPKKATELKHLQCLEEELKPLEEVLNLAQSKNFHLRPRDLISNINVIVLELKGSETTFMCEYADETATIVEFLNRWITFCQSIISTLT
B15: ΔT7, SQVLKA (ligand)
chain: B14 chain with P1A, T2P, S3T, T6S
B16: ΔP2, SQVLKA (ligand)
chain: B14 chain with P1A

target: T1, orthogonal hCD122 receptor (hoRb), …; test: cell-based or functional assay
Throughout, for Relative Proliferation Fold Change 3F8 1:10: reference of the scale not given here.
Throughout, for Relative Proliferation Fold Change 3F8 1:2: reference of the scale not given here.
Throughout, for Relative Proliferation Fold Change 3F8 1:50: reference of the scale not given here.
Throughout, for Relative Proliferation Fold Change NKL 1:10: reference of the scale not given here.
Throughout, for Relative Proliferation Fold Change NKL 1:2: reference of the scale not given here.
Throughout, for Relative Proliferation Fold Change NKL 1:50: reference of the scale not given here.

| NKL Ortho Proliferation Signal 1:2 | NKL Ortho Proliferation Signal 1:10 | NKL Ortho Proliferation Signal 1:50 | Relative Proliferation Fold Change NKL 1:2 [fold] | Relative Proliferation Fold Change NKL 1:10 [fold] | Relative Proliferation Fold Change NKL 1:50 [fold] | Binder |
| --- | --- | --- | --- | --- | --- | --- |
| 21100 | 18200 | 9480 | 1.78 | 1.19 | 0.67 | B1 |
| 13200 | 11600 | 8390 | 1.21 | 0.83 | 0.63 | B2 |
|  |  |  | 1.23 |  |  | B3 |
|  |  |  | 1.23 |  |  | B4 |
| 10800 | 8600 | 6590 | 0.83 | 0.62 | 0.51 | B5 |
| 14000 | 11100 | 8870 | 1.14 | 0.66 | 0.54 | B6 |
| 13000 | 10700 | 6780 | 1.11 | 0.78 | 0.53 | B7 |
| 53000 | 26000 | 13300 | 3.46 | 1.63 | 0.87 | B8 |
| 16000 | 13000 | 7840 | 2.1 | 1.25 | 0.77 | B9 |
| 16400 | 16100 | 8570 | 1.5 | 1.06 | 0.59 | B10 |
| 14600 | 11800 | 9400 | 1.05 | 0.72 | 0.62 | B11 |
| 20500 | 18600 | 11000 | 1.4 | 1.07 | 0.65 | B12 |
| 13500 | 11700 | 8730 | 1.1 | 0.83 | 0.6 | B13 |
| 33400 | 27700 | 13800 | 2.96 | 1.81 | 0.96 | B14 |
| 55400 | 51900 | 25300 | 3.65 | 3.32 | 1.76 | B15 |
| 64000 | 61900 | 27800 | 4.41 | 3.8 | 1.77 | B16 |

target: T1, orthogonal hCD122 receptor (hoRb), …; test: cell-based or functional assay; remark: another data set of the same source

| 3F8 Ortho Proliferation Signal 1:2 [cts/min] | 3F8 Ortho Proliferation Signal 1:10 [cts/min] | 3F8 Ortho Proliferation Signal 1:50 [cts/min] | Relative Proliferation Fold Change 3F8 1:2 [fold] | Relative Proliferation Fold Change 3F8 1:10 [fold] | Relative Proliferation Fold Change 3F8 1:50 [fold] | Binder |
| --- | --- | --- | --- | --- | --- | --- |
| 33400 | 31600 | 12600 | 32.9 | 28.2 | 13.1 | B1 |
| 12500 | 8030 | 2510 | 29.7 | 9.79 | 2.73 | B2 |
| 8530 | 5590 | 1850 | 20.2 | 9.6 | 2.1 | B5 |
| 7840 | 4470 | 714 | 14.6 | 3.35 | 0.92 | B6 |
| 18600 | 10500 | 3500 | 0.45 | 1.2 | 0.77 | B7 |
| 32600 | 35100 | 19100 | 80.2 | 56.4 | 25.8 | B8 |
| 22000 | 14500 | 4060 | 117 | 23.9 | 6 | B9 |
| 19700 | 9730 | 3150 | 59.8 | 13 | 4.68 | B10 |
| 15900 | 7290 | 2940 | 69.2 | 10.1 | 4.29 | B11 |
| 20800 | 11100 | 3800 | 63.3 | 14.5 | 5.92 | B12 |
| 18000 | 9170 | 2300 | 74.5 | 15.6 | 5.06 | B13 |
| 32400 | 21900 | 8150 | 171 | 22.6 | 11.7 | B14 |
| 40800 | 29200 | 10700 | 49.1 | 21.7 | 15.3 | B15 |
| 40100 | 31000 | 12400 | 34.2 | 29.4 | 10.5 | B16 |
